This is an account of results in US20080166293A1.

This assay addresses human transferrin receptor (hTfR) (human) (UniProt P02786). Briefly: Scatchard analysis, 125I-labelled protein (tyrosine of the peptide iodinated) on CEF+hTfR cells on ice.

human transferrin receptor (hTfR) (human), sequence (P02786 whole entry): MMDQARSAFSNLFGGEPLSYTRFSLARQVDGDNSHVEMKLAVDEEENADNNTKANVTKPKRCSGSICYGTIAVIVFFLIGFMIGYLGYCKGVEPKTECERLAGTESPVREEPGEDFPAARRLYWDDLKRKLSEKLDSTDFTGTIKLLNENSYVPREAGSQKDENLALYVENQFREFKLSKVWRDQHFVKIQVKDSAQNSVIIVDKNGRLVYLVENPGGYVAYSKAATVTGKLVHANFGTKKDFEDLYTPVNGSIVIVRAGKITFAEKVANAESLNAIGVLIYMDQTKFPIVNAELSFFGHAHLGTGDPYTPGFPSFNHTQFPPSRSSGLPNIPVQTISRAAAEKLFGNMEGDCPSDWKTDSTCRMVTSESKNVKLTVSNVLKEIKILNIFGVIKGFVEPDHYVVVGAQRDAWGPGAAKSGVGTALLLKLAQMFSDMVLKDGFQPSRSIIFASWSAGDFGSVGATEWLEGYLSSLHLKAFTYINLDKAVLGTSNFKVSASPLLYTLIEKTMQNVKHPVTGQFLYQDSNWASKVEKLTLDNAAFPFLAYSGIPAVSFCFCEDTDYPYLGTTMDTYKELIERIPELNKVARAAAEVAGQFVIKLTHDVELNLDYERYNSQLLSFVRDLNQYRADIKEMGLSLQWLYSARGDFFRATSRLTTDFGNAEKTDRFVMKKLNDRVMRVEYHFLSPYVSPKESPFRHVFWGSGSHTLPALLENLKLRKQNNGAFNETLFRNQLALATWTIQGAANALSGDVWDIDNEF

The Kd is the constant that tells how readily two partners part at equilibrium. Higher therefore signals lower affinity. Take GFP-HAIYPRH (Seq. ID No. 1): the Kd turned out to be 360 µM.
